Source: patent US20230272073A1

Biological target: IGHV3-21/IGLV3-21^G110 BCR on murine TKO cells (human) (UniProt P01871)
Assay: flow cytometry dot plot, cell mix B (1:1 IGHV3-21/IGLV3-21^G110 BCR TKO cells and BCR-negative TKO cells), 5 µg/ml mAb01-01-APC and 2 µg/ml anti-human IgM-PE

Sequence of IGHV3-21/IGLV3-21^G110 BCR on murine TKO cells (human) (P01871 other isoform, or with tags, fused parts or gaps, chain 1 of 2): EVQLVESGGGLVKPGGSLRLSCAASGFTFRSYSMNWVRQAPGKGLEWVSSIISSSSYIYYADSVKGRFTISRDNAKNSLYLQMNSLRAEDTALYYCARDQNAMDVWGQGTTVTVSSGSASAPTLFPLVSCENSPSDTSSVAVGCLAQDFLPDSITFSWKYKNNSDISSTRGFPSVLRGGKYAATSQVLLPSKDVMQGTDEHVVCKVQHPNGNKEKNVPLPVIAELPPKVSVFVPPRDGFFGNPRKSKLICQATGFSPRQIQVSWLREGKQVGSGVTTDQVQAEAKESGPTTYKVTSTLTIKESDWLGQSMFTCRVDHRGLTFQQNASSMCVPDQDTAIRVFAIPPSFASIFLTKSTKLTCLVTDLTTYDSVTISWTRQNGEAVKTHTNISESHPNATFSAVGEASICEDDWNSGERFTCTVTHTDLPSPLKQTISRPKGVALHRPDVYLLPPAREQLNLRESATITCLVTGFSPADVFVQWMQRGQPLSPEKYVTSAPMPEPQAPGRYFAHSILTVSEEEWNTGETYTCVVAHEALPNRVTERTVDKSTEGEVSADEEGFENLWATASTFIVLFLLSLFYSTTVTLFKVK
Sequence of IGHV3-21/IGLV3-21^G110 BCR on murine TKO cells (human) (light, as listed by the source, chain 2 of 2): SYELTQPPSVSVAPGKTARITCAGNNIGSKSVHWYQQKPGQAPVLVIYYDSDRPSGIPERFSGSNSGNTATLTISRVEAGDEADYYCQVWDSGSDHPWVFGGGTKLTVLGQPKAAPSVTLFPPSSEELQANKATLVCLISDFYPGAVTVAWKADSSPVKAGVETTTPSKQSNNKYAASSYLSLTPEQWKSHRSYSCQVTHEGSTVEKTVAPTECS

share of gated cells (P1) in quadrant Q1 (anti-IgM-PE positive, mAb01-01-APC negative): 42.2%
share of gated cells (P1) in quadrant Q2 (anti-IgM-PE positive, mAb01-01-APC positive): 1.11%
B1: mAb01-01 (antibody, mouse IgG1, kappa, V domains shown)
VH: QVQLQQSGPGLVQPSQSLSITCTVSGFSLTSYGIHWVRQSPGKGLEWLGVIWRGGGTDSNAAFMSRLSITKDNSKSQVFFKMNSLQADDTAIYYCARSRYDEEESMNYWGQGTSVTVSS
VL: QIVLTQSPASLSASVGETVTITCRASGNIHSYLAWYQQKQGKSPQLLVYNAKTLADGVPSRFSGSGSGTQYSLKINSLQPEDFGSYYCQHFWNTPPTFGAGTKLELKR
